The values below come from patent US20240067944A1 (published 2024).

Positions count from the first letter of the chain named.

B1: Cmpd #6 (anti-FX/anti-FIX(a) VHH polypeptide derivative) (bispecific antibody)
chain: DVQLVESGGGVVQPGGSLQLSCAASGRTHSRYAMGWFRQAPGQEREFVAAISRRGGSTNYADSVKGRFTISRDNSKNTVYLQMDSLRPEDTALYYCAADDSSGDGYLDYWGQGTLVTVSSGGGGSGGGSEVQLVESGGGVVQPGGSLQLSCAASGRTFNIYTMSWFRQAPGQEREFVAGLRWTDSSTEYADSVKGRFTISRDNSKNTVYLQMDSLRPEDTALYYCAADRSFLFAQALGATKNYEYWGQGTLVTVSSGGGGCSCHHHHHH
modifications: C16 diacid protractor (P2) via linker LP1 on Cys5 and Cys7 in C-term extension (SEQ ID NO: 8)
notes: Single chain of two VHH: anti-FX (N-terminal) and anti-FIX(a) (C-terminal)
B2: Cmpd #21 (anti-FX/anti-FIX(a) VHH polypeptide derivative) (bispecific antibody)
chain: DVQLVESGGGVVQPGGSLQLSCAASGGTKSRYAMGWFRQAPGQEREFVAAISRRGGSTNYADSVKGRFTISRDNSKNTVYLDMDDLRPEDTALYYCAADDSVGDGYLDYWGQGTLVTVSSGQAPGQEVQLVESGGGVVQPGGSLQLSCAASGRTFNIYTMSWFRQDPGQEREFVAGLRWTDSSTEYADSVKGRFTISRDNSKNTVYLQMDSLRPEDTALYYCAADRSFLFAQALGATKNYEYWGQGTLVTVSSGQACPC
modifications: C16 diacid protractor (P2) via linker LP1 on Cys4 and Cys6 in C-term extension (SEQ ID NO: 9)
B3: Cmpd #16 (anti-FX/anti-FIX(a) VHH polypeptide derivative) (bispecific antibody)
chain: B2 chain with S30R, Y32L, F47W, Q145R, T154Y, D210N
modifications: C16 diacid protractor (P2) via linker LP1 on Cys4 and Cys6 in C-term extension (SEQ ID NO: 9)
B4: Cmpd #17 (anti-FX/anti-FIX(a) VHH polypeptide derivative) (bispecific antibody)
chain: B2 chain with F47W
modifications: C16 diacid protractor (P2) via linker LP1 on Cys4 and Cys6 in C-term extension (SEQ ID NO: 9)
B5: Cmpd #19 (anti-FX/anti-FIX(a) VHH polypeptide derivative) (bispecific antibody)
chain: B2 chain with F47W, D82Q, D85S, D166A
modifications: C16 diacid protractor (P2) via linker LP1 on Cys4 and Cys6 in C-term extension (SEQ ID NO :9)
B6: Cmpd #15 (anti-FX/anti-FIX(a) VHH polypeptide derivative) (bispecific antibody)
chain: B2 chain with S30R, Y32L, F47W, D82Q, D85S, D166A
modifications: C16 diacid protractor (P2) via linker LP1 on Cys4 and Cys6 in C-term extension (SEQ ID NO:9)
notes: Single chain of two VHH: anti-FX (N-terminal) and anti-FIX(a) (C-terminal); also called VHH1.15-L1-2-VHH2.15-E
B7: Cmpd #13 (anti-FX/anti-FIX(a) VHH polypeptide derivative) (bispecific antibody)
chain: B2 chain with S30R, Y32L, F47W
modifications: C16 diacid protractor (P2) via linker LP1 on Cys4 and Cys6 in C-term extension (SEQ ID NO: 9)
notes: Single chain of two VHH: anti-FX (N-terminal) and anti-FIX(a) (C-terminal); also called VHH1.13-L1-2-VHH2.13-E
B8: Cmpd #8 (anti-FX/anti-FIX(a) VHH polypeptide derivative) (bispecific antibody)
chain: B2 chain with D82Q, D85S, D166A
modifications: C16 diacid protractor (P2) via linker LP1 on Cys4 and Cys6 in C-term extension (SEQ ID NO: 9)
notes: as for B1
B9: Cmpd #14 (anti-FX/anti-FIX(a) VHH polypeptide derivative) (bispecific antibody)
chain: B2 chain with S30R, Y32L, D82Q, D85S, D166A
modifications: C16 diacid protractor (P2) via linker LP1 on Cys4 and Cys6 in C-term extension (SEQ ID NO: 9)
notes: Single chain of two VHH: anti-FX (N-terminal) and anti-FIX(a) (C-terminal); also called VHH1.14-L1-2-VHH2.14-E
B10: Cmpd #10 (anti-FX/anti-FIX(a) VHH polypeptide derivative) (bispecific antibody)
chain: B2 chain with S30R, Y32L, F47W, D82Q, D85S, Q145R, D166A, D210N
modifications: C16 diacid protractor (P2) via linker LP1 on Cys4 and Cys6 in C-term extension (SEQ ID NO: 9)
notes: as for B1
B11: Cmpd #12 (anti-FX/anti-FIX(a) VHH polypeptide derivative) (bispecific antibody)
chain: B2 chain with S30R, Y32L
modifications: C16 diacid protractor (P2) via linker LP1 on Cys4 and Cys6 in C-term extension (SEQ ID NO: 9)
notes: Single chain of two VHH: anti-FX (N-terminal) and anti-FIX(a) (C-terminal); also called VHH1.12-L1-2-VHH2.12-E
B12: Cmpd #7 (anti-FX/anti-FIX(a) VHH polypeptide derivative) (bispecific antibody)
chain: B2 chain with D82Q, D85S, Q145R, D166A, D210N
modifications: C16 diacid protractor (P2) via linker LP1 on Cys4 and Cys6 in C-term extension (SEQ ID NO: 9)
notes: as for B1
B13: Cmpd #9 (anti-FX/anti-FIX(a) VHH polypeptide derivative) (bispecific antibody)
chain: B2 chain with Q145R, D210N
modifications: C16 diacid protractor (P2) via linker LP1 on Cys4 and Cys6 in C-term extension (SEQ ID NO: 9)
notes: as for B1
B14: Cmpd #11 (anti-FX/anti-FIX(a) VHH polypeptide derivative) (bispecific antibody)
chain: B2 chain with S30R, Y32L, Q145R, D210N
modifications: C16 diacid protractor (P2) via linker LP1 on Cys4 and Cys6 in C-term extension (SEQ ID NO: 9)
notes: as for B1
B15: Cmpd #4 (anti-FX/anti-FIX(a) VHH polypeptide derivative) (bispecific antibody)
chain: DVQLVESGGGVVQPGGSLRLSCAASGRTHSRYAMGWFRQAPGKEREFVAAISRRGGSTNYADSVKGRFTISRDNSKNTVYLQMNSLRPEDTALYYCAADDSSGDGYLDYWGQGTLVTVSSGGGGSGGGSEVQLVESGGGVVQPGGSLRLSCAASGRTFNIYTMSWFRQAPGKEREFVAGLRWTDSSTEYADSVKGRFTISRDNSKNTVYLQMNSLRPEDTALYYCAADRSFLFAQALGATKNYEYWGQGTLVTVSSGGGGSCHHHHHH
modifications: C18 diacid protractor (P3) via linker LP1 on Cys6 in C-term extension (SEQ ID NO: 7)
notes: as for B1
B16: Cmpd #5 (anti-FX/anti-FIX(a) VHH polypeptide derivative) (bispecific antibody)
chain: B15 chain with R19Q, K43Q, N84D, R148Q, K172Q, N213D
modifications: C18 diacid protractor (P3) via linker LP1 on Cys6 in C-term extension (SEQ ID NO: 7)
notes: as for B1

For the first experiment, the target named is human plasma-derived FX (Haematologic Technologies Inc, USA) (human) (UniProt P00742). The experiment in a line: cell-based or functional assay.
Sequence of human plasma-derived FX (Haematologic Technologies Inc, USA) (human) (P00742 41-179, chain 1 of 2): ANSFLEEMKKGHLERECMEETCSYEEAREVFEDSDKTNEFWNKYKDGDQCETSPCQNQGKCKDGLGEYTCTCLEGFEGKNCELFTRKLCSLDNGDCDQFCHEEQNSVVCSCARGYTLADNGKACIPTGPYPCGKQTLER
Sequence of human plasma-derived FX (Haematologic Technologies Inc, USA) (human) (P00742 183-488, chain 2 of 2): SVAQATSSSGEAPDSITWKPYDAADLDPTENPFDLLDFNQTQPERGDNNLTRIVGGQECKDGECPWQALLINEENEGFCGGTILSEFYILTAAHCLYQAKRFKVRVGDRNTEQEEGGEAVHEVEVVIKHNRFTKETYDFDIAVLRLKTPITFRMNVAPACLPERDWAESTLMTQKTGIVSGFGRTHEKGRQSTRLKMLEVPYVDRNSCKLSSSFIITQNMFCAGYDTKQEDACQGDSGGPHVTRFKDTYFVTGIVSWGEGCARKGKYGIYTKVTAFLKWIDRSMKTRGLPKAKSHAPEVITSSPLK
As to “emicizumab sequence identical analogue (SIA) (bispecific antibody)”, the KM (nM) of FX activation by 0.1 nM FIXa on phospholipid vesicles with 300 nM antibody is 53.5 nM and the kcat/KM (1/(min * nM)) of FX activation by 0.1 nM FIXa with 300 nM antibody turned out to be 500000 M⁻¹ s⁻¹.

In a further experiment the target is T1, human plasma-derived FX (Haematologic Technologies Inc, USA) (human, UniProt P00742 41-179; P00742 183-488). The experiment in a line: cell-based or functional assay.
T1 sequence (P00742 41-179, chain 1 of 2): as the sequence (P00742 41-179, chain 1 of 2) above
T1 sequence (P00742 183-488, chain 2 of 2): as the sequence (P00742 183-488, chain 2 of 2) above
On to B1, for which the “KM (nM) of FX activation by 0.1 nM FIXa on phospholipid vesicles with 5 nM compound” value (“KM (nM) of FX activation … with 5 nM compound” for short) came to 5.9 nM and the “kcat/KM (1/(min * nM)) of FX activation by 0.1 nM FIXa with 5 nM compound” value (shortened to “kcat/KM (1/(min * nM)) … with 5 nM compound”) worked out at 5.5e+06 M⁻¹ s⁻¹.

Consider B2, for which the “KM (nM) of FX activation … with 5 nM compound” value came out at 3.9 nM and the “kcat/KM (1/(min * nM)) … with 5 nM compound” value is 4.5e+06 M⁻¹ s⁻¹.

Turning to B3, the “KM (nM) of FX activation … with 5 nM compound” value came to 7.1 nM and the “kcat/KM (1/(min * nM)) … with 5 nM compound” value came to 2.33e+06 M⁻¹ s⁻¹.

As to B4, the “KM (nM) of FX activation … with 5 nM compound” value was determined as 9 nM and the “kcat/KM (1/(min * nM)) … with 5 nM compound” value was 2.5e+06 M⁻¹ s⁻¹.

Take B5: the “KM (nM) of FX activation … with 5 nM compound” value turned out to be 8.2 nM and the “kcat/KM (1/(min * nM)) … with 5 nM compound” value was 5e+06 M⁻¹ s⁻¹.

On to B6, for which the “KM (nM) of FX activation … with 5 nM compound” value amounted to 6.9 nM and the “kcat/KM (1/(min * nM)) … with 5 nM compound” value is 4.17e+06 M⁻¹ s⁻¹.

Regarding B7, the “KM (nM) of FX activation … with 5 nM compound” value was 6.2 nM and the “kcat/KM (1/(min * nM)) … with 5 nM compound” value is 3e+06 M⁻¹ s⁻¹.

In the case of B8, the “KM (nM) of FX activation … with 5 nM compound” value turned out to be 4.8 nM and the “kcat/KM (1/(min * nM)) … with 5 nM compound” value stood at 4.5e+06 M⁻¹ s⁻¹.

For another experiment, the target named is T1, human plasma-derived FX (Haematologic …). Nature of the experiment: SPR, FX captured on immobilised anti-GLA-FX antibody, steady state analysis, 25 C. As for the experimental part: Briefly, an anti-GLA-FX, prepared recombinantly as described above, was immobilised on a CM4 sensor chip or a Xantec HLC200M using standard amine coupling chemistry at pH 5. 10 nM FX (Haematologic Technologies, USA) was injected at a flow rate of 10 μL/min for 30 seconds. Subsequently 1000, 100, 10, 1, 0.1 and 0 nM of VHH polypeptide compound, according to Table 9, below were injected at a flow rate of 50 μL/min for 200 seconds to allow for binding to FX followed by a flow of 10 minutes with a running buffer (10 mM HEPES, 150 mM NaCl, 5 mM CaCl₂), 0.05% (v/v) Surfactant P20, 1 mg/mL bovine serum albumin, pH 7.4) injection allowing for dissociation from FX. The running buffer was also used for dilution of anti-FX VHH polypeptide compounds. Regeneration of the chip was achieved using a regeneration buffer consisting of 50 mM EDTA in running buffer, 30 seconds contact time, and a 30 μL/min flow rate. The binding data were collected at 25° C. and were analysed according to a 1:1 model using BiaEvaluation 4.1 supplied by the manufacturer (Biacore AB, Uppsala or Bruker Analyser).
(§1) Therefore, the reported KD values are determined based on steady state analysis.
(In SPR one partner is held on a chip, and binding of the other changes the refractive index at the surface.)
As a reminder, the Kd is a measure of binding affinity in units of concentration. Low readings indicate higher affinity, high ones lower affinity. Consider B1, for which the affinity, expressed as Kd, was 232 nM.

With B9, the Kd was found to be 42 nM.

With B10, the Kd is 190 nM.

Consider B6, for which the Kd worked out at 350 nM.

B11: the Kd amounted to 26 nM.

Take B7: the Kd was 300 nM.

In turn, B12 registered a Kd of 82 nM.

Turning to B8, the Kd came to 96 nM.

In turn, B13 came in with a Kd of 70 nM.

Turning to B14, the Kd amounted to 42 nM.

In the case of B15, the Kd came out at 229 nM.

Consider B16, for which the Kd is 199 nM.

For the next experiment, the target named is T2, Benefix (Pfizer Inc, USA), FIX (human, UniProt P00740 47-461).
T2 construct: Bought product; also called FIX (Benefix®)
T2 sequence (P00740 47-461 T194A limits assumed): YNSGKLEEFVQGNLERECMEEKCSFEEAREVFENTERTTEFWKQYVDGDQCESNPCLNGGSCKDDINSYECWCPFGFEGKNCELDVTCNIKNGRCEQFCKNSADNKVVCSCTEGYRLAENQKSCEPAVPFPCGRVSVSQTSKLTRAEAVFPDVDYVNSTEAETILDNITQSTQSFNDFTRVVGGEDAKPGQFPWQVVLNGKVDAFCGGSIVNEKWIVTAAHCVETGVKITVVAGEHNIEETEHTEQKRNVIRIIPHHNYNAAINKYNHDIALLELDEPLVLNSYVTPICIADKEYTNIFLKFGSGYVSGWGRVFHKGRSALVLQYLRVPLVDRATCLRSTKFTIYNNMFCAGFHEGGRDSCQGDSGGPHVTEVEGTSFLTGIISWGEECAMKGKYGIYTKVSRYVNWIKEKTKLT
Nature of the experiment: SPR, FIX (Benefix) captured on immobilised anti-GLA-FIX antibody, steady state analysis, 25 C. As for the experimental part:
Briefly, anti-GLA-FIX, prepared recombinantly as described above, was immobilised on a CM4 sensor chip or a Xantec HLC200M using standard amine coupling chemistry at pH 5. FIX (10 nM) was injected at a flow rate of 10 μL/min for 1 minute. Subsequently 1000, 100, 10, 1, 0.1 and 0 nM of VHH polypeptide compound were injected at a flow rate of 30 μL/min for 4 minutes to allow for binding to the FIX (Benefix®) followed by a flow of 5 minutes running buffer (10 mM HEPES, 150 mM NaCl, 5 mM CaCl₂), 0.05% (v/v) Surfactant P20, 1 mg/mL bovine serum albumin, pH 7.4) injection allowing for dissociation from FIX. The running buffer was also used for dilution of anti-FIX VHH polypeptide compounds. Regeneration of the chip was achieved using a regeneration buffer consisting of 50 mM EDTA in running buffer, 30 seconds contact time, and a 30 μL/min flow rate. The binding data were collected at 25° C. and were analysed according to a 1:1 model using BiaEvaluation 4.1 supplied by the manufacturer (Biacore AB, Uppsala).
as §1
Consider B1, for which the Kd stood at 4.8 nM.

B9: binding was put at a Kd of 1.6 nM.

On to B10, for which the Kd is 5.5 nM.

On to B6, for which binding was put at a Kd of 3 nM.

Turning to B11, the Kd was determined as 7.8 nM.

B7 yielded a Kd of 2 nM.

With B12, the affinity, expressed as Kd, was 2.3 nM.

B8 showed a Kd of 2.5 nM.

The molecule B13 returned a Kd of 1.1 nM.

As to B14, the Kd was determined as 6.4 nM.

Take B15: binding was put at a Kd of 11.7 nM.

B16 displayed a Kd of 2.7 nM.
